Reference: paper PMC4457860, “In Vitro Interaction of the Housekeeping SecA1 with the Accessory SecA2 Protein of Mycobacterium tuberculosis” (PLoS ONE, 2015)

Legend:
[1] = biological target: Escherichia coli SecA labeled with Cy5 (E. coli) (UniProt P10408); experiment: MST; Monolith NT.115; unlabeled protein (1 nM to 5 μM) titrated into 25 nM Cy5-labeled protein, mixed in 300 mM KCl, then diluted into low salt buffer (25 mM HEPES-KOH pH 7.5, 30 mM KCl, 2 mM MgCl2, 50 mM arginine); Hill fit, apparent Kd; dimer to monomers
[2] = biological target: Mycobacterium tuberculosis SecA1 (unlabeled) (Mycobacterium tuberculosis strain H37Rv) (UniProt P9WGP5); experiment: SEC; Superdex 200 10/300 GL, 0.5 ml/min, 20 mM HEPES-KOH pH 7.5, 2 mM MgCl2, 50 mM arginine, low salt (30 mM KCl); protein 2-5 mg/ml; mass estimated with protein standards
[3] = biological target: the molecule itself; experiment: as above

Molecule: Escherichia coli SecA (unlabeled) (from UniProt P10408 1-901) (natural protein)
- Kd [1]: 31 nM

Molecule: Mycobacterium tuberculosis SecA1 (unlabeled) (from UniProt P9WGP5 1-949) (natural protein)
- stoichiometry N [2]: 2

B1: Mycobacterium tuberculosis SecA2 (unlabeled) (natural protein)
chain: MVPKTTRAQPGRLSSRFWRLLGASTEKNRSRSLADVTASAEYDKEAADLSDEKLRKAAGLLNLDDLAESADIPQFLAIAREAAERRTGLRPFDVQLLGALRMLAGDVIEMATGEGKTLAGAIAAAGYALAGRHVHVVTINDYLARRDAEWMGPLLDAMGLTVGWITADSTPDERRTAYDRDVTYASVNEIGFDVLRDQLVTDVNDLVSPNPDVALIDEADSVLVDEALVPLVLAGTTHRETPRLEIIRLVAELVGDKDADEYFATDSDNRNVHLTEHGARKVEKALGGIDLYSEEHVGTTLTEVNVALHAHVLLQRDVHYIVRDDAVHLINASRGRIAQLQRWPDGLQAAVEAKEGIETTETGEVLDTITVQALINRYATVCGMTGTALAAGEQLRQFYQLGVSPIPPNKPNIREDEADRVYITTAAKNDGIVEHITEVHQRGQPVLVGTRDVAESEELHERLVRRGVPAVVLNAKNDAEEARVIAEAGKYGAVTVSTQMAGRGTDIRLGGSDEADHDRVAELGGLHVVGTGRHHTERLDNQLRGRAGRQGDPGSSVFFSSWEDDVVAANLDHNKLPMATDENGRIVSPRTGSLLDHAQRVAEGRLLDVHANTWRYNQLIAQQRAIIVERRNTLLRTVTAREELAELAPKRYEELSDKVSEERLETICRQIMLYHLDRGWADHLAYLADIRESIHLRALGRQNPLDEFHRMAVDAFASLAADAIEAAQQTFETANVLDHEPGLDLSKLARPTSTWTYMVNDNPLSDDTLSALSLPGVFR
notes: No tag; molecular mass 85 kDa on SDS-PAGE; also called PIP152
- stoichiometry N [3]: 2
